Measurements: patent publication US10196447B2, “Anti-vascular endothelial growth factor receptor 2 (VEGFR2) antibody and methods of use thereof for detecting VEGFR2 and for inhibiting tumor growth, tumor angiogenesis and/or inducing cancer cell cytotoxicity” (Academia Sinica, priority 2015, dated 2019)

Columns and labels:
PC-3 xenografts = assay: PC-3 human prostate cancer xenograft model; assay type: in vivo, NOD/SCID mice
Protocol: Procedures involving animals and their care were conducted according to the guidelines of the Academia Sinica Institutional Animal Care and Utilization Committee in compliance with national and international laws and policies. Non-obese diabetic-severe combined immunodeficiency (NOD/SCID) mice were purchased from the National Laboratory Animal Center (Taiwan). The human prostate cancer xenograft tumor model was developed by subcutaneously injecting 2×10^6 PC-3 cells into the dorsal flank of a six-week old male mouse. Animals were monitored daily for general health, and body weights were measured twice weekly. Tumor size was measured with slide calipers and calculated as length×width^2×0.52. […] An antibody dose of 20 mg/kg was injected twice a week for four weeks. For combination therapy, docetaxel (ScinoPharm Taiwan) was also intravenously administered at a dose of 5 mg/kg once a week for three weeks. At the end of the experiment, tumor tissue and visceral organs were removed and fixed for histological analysis.
For tumor blood vessel studies, samples were fixed in OCT. Frozen blocks were cut into 50 μm sections, and frozen tumor tissue sections were fixed with 1% paraformaldehyde, permeabilized with 0.1% TRITON™-X 100, blocked with normal horse serum (Vector), and then incubated for 1 hour at room temperature (RT) with a 1:100 dilution of the primary antibody (rat anti-mouse CD31 (PECAM-1); BD Bioscience). Subsequently, the tissue sections were incubated with Alexa 549-conjugated goat anti-rat antibody (Invitrogen) at room temperature for 1 hour. Nuclei were stained with DAPI, and sections were then mounted with fluorescent mounting solution. Immunofluorescent images were acquired using a Zeiss Axiovert 200M microscope. Positive areas of CD31 endothelial cells were quantified by pixel area counting and normalized with DAPI staining using ImageJ software under low power magnification.
The frozen tumor tissue sections were fixed with 1% paratbrmaldehyde and permeabilized with 0.1% TRITON™-X 100, before being incubated with terminal deoxynucleotidyltransferase-mediated dUTP nick end labeling reaction mixture (Roche Diagnostics) at 37° C. for 1 hour. After washing three times with PBS, the slides were incubated with FITC-anti-DIG antibody (1:2000) and DAPI (1:500). Slides were mounted with mounting solution and visualized under a fluorescent microscope. Slides were independently examined by three individuals. Areas with TUNEL-positive cells were quantified by pixel area counting, and normalized to DAPI staining using ImageJ software.

Met-Fc = assay: Phage clone ELISA on control protein; assay type: binding
Protocol: (§1) The selected phages were further examined by ELISA screening. The 96-well plates were coated with 1 μg/ml of VEGFR2-Fc, Met-Fc (R&D), or BSA (Sigma) protein in 0.1 M sodium bicarbonate overnight at 4° C. After blocking with 1% BSA in PBS (w/v) for 2 hr at room temperature, 70-randomly selected phage clones were added to the plates at a 1:2 dilution in 1% BSA, and incubated for 1 hr at room temperature. Following washes with PBST, the plates were incubated with a 1:2000 dilution of horseradish peroxidase (HRP)-conjugated mouse anti-M13 phage antibody (GE) for 1 hr. After washing with PBST, the colorimetric reaction was developed with the peroxidase substrate ortho-phenylenediamine (OPD; Sigma) plus H2O2 for 15 min, and then terminated by the addition of 3 N HCl. The absorbance at 490 nm was determined using a microplate reader (SpectraMax, Molecular Devices). Plasmid DNA of positive clones were isolated and sequenced using the pCANTAB5 sequencing primer set.

VEGFR2-Fc = biological target: T1, VEGFR2-Fc (Homo sapiens, UniProt P35968); assay: Screening of anti-VEGFR2 phage clones by ELISA; assay type: binding; conditions: 1×10^9 cfu phage titer
T1 construct: purchased R&D Systems
T1 sequence (P35968 with tags, fused parts or gaps limits assumed): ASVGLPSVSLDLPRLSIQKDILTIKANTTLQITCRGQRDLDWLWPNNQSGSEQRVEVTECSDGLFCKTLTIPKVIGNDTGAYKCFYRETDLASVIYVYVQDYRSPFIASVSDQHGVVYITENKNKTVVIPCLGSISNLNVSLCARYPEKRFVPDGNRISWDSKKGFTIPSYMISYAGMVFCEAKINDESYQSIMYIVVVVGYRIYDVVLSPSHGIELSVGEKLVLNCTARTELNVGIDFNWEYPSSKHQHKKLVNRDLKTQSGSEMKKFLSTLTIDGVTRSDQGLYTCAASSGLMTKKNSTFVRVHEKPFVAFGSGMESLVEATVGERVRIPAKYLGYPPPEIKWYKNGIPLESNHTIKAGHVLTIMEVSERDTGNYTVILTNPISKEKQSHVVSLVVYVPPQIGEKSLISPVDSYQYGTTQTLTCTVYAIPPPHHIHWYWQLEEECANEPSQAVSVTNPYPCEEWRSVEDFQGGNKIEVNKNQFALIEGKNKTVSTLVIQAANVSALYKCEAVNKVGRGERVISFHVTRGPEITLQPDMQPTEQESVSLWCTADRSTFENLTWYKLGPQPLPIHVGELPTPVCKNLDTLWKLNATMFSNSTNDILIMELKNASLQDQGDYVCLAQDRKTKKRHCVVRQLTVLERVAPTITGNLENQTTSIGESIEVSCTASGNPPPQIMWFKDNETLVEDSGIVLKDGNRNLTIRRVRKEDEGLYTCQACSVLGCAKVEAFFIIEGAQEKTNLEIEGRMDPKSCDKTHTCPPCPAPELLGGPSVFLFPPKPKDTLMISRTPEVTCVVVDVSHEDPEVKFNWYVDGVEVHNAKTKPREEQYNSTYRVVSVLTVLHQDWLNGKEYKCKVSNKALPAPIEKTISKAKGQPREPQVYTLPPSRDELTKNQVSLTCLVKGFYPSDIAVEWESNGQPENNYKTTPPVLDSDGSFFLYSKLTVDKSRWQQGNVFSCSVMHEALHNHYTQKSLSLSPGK
Protocol: as §1

VEGFR2 = biological target: T2, VEGFR2 (Homo sapiens, UniProt P35968); assay: Competitive VEGF binding assay (ELISA): VEGF-A binding to immobilized VEGFR2; conditions: scFv; for competitive ability against VEGF-A binding to VEGFR2: plate-based competition binding assay; for IC50: 3 nM human VEGF-A, immobilized VEGFR2-Fc, read-out: half-maximal inhibitory concentration (IC50) of the interaction of VEGF-A with VEGFR2
T2 construct: purchased R&D Systems
T2 sequence (P35968 with tags, fused parts or gaps limits assumed): as above
Protocol: Various concentrations of anti-VEGFR2 scFvs were mixed with 3 nM human VEGF-A (Peprotech), and added to 96-well plates coated with 1 μg/ml of VEGFR2-Fc and pre-blocked in 1% BSA. After incubation for 1 hr at RT and washes with PBST, the bound VEGF molecules were detected using anti-VEGF mAb (GeneTex) and HRP-labeled goat anti-mouse IgG. The reaction was developed with a mixture of OPD and H2O2, and subsequently terminated with 3 N HCl. The absorbance was determined using a microplate reader at 490 nm.
To determine whether the anti-VEGFR2 scFvs can block VEGF-A binding to VEGFR2, we performed a plate-based competition binding assay in which increasing concentrations of scFvs competed with VEGF-A for binding to the immobilized VEGFR2.
We analyzed the affinity of both human antibodies to VEGFR2 using a BIACORE T100™. […] We performed solid-phase competitive assays to quantitatively evaluate the disruption of VEGF-A/VEGFR2 binding by individual antibodies.

VEGFR2 signaling pathway = assay: Western blot of VEGF-A-induced phosphorylation in HUVECs; assay type: cell-based, human; conditions: scFv
Description: Western blots were pertbrmed using standard protocols, as previously described. The primary antibodies were purchased from Cell Signaling Technology and used at a 1,000-fold dilution for protein detection; the antibodies used are as follows: anti-VEGFR2 (clone 55B11), anti-phospho-VEGFR2 (Tyr1175; clone 19A10), anti-FAK, anti-phospho-FAK (Tyr397; cloneD20B1), anti-p42/44 MAPK, anti-phospho-p42/44 MAPK (Thr202/Tyr204; cloneD13.14.4E), anti-Akt, and anti-phospho-Akt (Ser473).

murine VEGFR2 protein = murine VEGFR2 protein (Mus musculus, UniProt P35918, DEL223-227); assay: Cross-reactivity with murine VEGFR2; assay type: binding
murine VEGFR2 protein, sequence (P35918 with tags, fused parts or gaps DEL223-227): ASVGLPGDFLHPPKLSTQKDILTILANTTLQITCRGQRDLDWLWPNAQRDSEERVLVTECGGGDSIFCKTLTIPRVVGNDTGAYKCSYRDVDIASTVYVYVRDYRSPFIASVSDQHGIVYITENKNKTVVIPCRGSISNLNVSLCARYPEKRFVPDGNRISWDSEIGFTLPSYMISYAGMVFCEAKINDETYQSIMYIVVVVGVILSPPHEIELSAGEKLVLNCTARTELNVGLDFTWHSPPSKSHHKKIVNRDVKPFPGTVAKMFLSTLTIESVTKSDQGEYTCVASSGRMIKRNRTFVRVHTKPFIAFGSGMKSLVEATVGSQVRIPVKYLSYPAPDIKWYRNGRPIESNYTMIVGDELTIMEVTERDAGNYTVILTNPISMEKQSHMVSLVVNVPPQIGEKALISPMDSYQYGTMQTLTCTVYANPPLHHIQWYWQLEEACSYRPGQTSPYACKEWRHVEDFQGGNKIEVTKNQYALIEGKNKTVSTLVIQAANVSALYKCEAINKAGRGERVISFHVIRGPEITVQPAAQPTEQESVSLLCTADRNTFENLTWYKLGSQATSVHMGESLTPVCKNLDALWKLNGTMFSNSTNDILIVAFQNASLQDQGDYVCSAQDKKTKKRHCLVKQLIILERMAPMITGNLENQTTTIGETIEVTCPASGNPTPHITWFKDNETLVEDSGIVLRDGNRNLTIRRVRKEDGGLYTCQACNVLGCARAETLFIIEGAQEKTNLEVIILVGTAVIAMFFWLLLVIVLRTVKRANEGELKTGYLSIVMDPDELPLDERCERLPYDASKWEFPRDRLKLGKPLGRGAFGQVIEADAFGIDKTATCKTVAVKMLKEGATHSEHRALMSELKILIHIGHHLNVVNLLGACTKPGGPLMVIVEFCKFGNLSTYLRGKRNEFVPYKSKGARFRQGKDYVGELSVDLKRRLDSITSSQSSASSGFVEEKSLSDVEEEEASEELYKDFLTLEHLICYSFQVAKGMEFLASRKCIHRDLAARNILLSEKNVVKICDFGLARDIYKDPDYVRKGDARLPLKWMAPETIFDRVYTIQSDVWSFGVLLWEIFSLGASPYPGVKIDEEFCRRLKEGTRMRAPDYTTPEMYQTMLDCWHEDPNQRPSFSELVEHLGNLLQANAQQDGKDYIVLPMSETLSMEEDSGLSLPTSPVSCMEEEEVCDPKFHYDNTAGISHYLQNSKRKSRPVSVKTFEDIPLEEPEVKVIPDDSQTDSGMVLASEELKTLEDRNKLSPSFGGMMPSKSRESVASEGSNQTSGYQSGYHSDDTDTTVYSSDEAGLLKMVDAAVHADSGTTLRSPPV

Molecule: CC(=O)O[C@@]12CO[C@@H]1C[C@H](O)[C@@]1(C)C(=O)[C@H](O)C3=C(C)[C@@H](OC(=O)[C@H](O)[C@@H](NC(=O)OC(C)(C)C)c4ccccc4)C[C@@](O)([C@@H](OC(=O)c4ccccc4)[C@H]21)C3(C)C [docetaxel, reference compound]
- tumor growth reduction (PC-3 xenografts; by day 38, antibody 20 mg/kg i.v. twice a week, docetaxel 5 mg/kg i.v. once a week): 70%
- loss of body weight (PC-3 xenografts; treatment period): about 20%

B1: R2PC28: phage-displayed human scFv clone binding VEGFR2; VH CDR1-3 SEQ ID NO: 11-13, VL CDR1/CDR3 SEQ ID NO: 14, 15 (antibody, V domains shown)
VH: EVQLVESGGALVQPGGSLRLSCVGSEFTFSHYNLHWVRQAPGKGLEWLAVISDDGRNKYYGDSVKGRFTISRDNSKNTLYLQMNGLRAEDTAVYYCARVPTVWRGGVYDIWGQGTMVTVSS
VL: EIVLTQSPATLSLSPGERATLSCRASQSVGSYLAWYQQRPGQPPRLLIYDASNRATGVAARFSGSGSGTDFTLTIDSLEAEDAATYYCHQSSSLPRTFGQGTKLEIK
- binding of phage clones to c-Met-Fc control protein (Met-Fc): not
- binding of phage clones to VEGFR2-Fc (VEGFR2-Fc): bind highly

B2: R2S28: soluble anti-VEGFR2 scFv protein generated from phage clone R2PC28 (antibody, V domains shown)
VH: B1 VH
VL: B1 VL
- competitive ability against VEGF-A binding to VEGFR2 (VEGFR2): comparatively weak competitive ability

B3: R2PC29: phage-displayed human scFv clone binding VEGFR2; VH CDR1-3 SEQ ID NO: 16-18, VL CDR1/CDR3 SEQ ID NO: 19, 20 (antibody, V domains shown)
VH: QVQLQQSGAEMKKSGSSVKVSCKASGGNFISKGISWVRQAPGQGLEWMGGIIPLFGTGNYAQKFQGRVTITADESTTTVYLQLTSLTPEDTAMYFCATADVDYSDSLEAFDMWGQGTMVTVSS
VL: DIVMTQSPSSLSASVGDRVTITCRASQSINNYLNWYQQKPGKAPNLLIYGASSLQSGVPSRFRGSGSGTDFTLTISSLQPEDFATYYCQQSYSTPLFGQGTKLEIK
- binding of phage clones to c-Met-Fc control protein (Met-Fc): not
- binding of phage clones to VEGFR2-Fc (VEGFR2-Fc): bind highly

B4: R2S29: soluble anti-VEGFR2 scFv protein generated from phage clone R2PC29 (antibody, V domains shown)
VH: B3 VH
VL: B3 VL
- competitive ability against VEGF-A binding to VEGFR2 (VEGFR2): comparatively weak competitive ability

B5: R2PC45: phage-displayed human scFv clone binding VEGFR2; VH CDR1-3 SEQ ID NO: 21-23, VL CDR1/CDR3 SEQ ID NO: 24, 25 (antibody, V domains shown)
VH: QVNLRESGGGVVQPGRSLRLSCAASGFTFSSYAMHWVRQAPGKGLEWVAVISYDGSNKYYADSVKGRFTISRDNSKNTLYLQMNSLRAEDTAVYYCAREQDYGSSSGDAFDIWGQGTMVTVSS
VL: DIQMTQSPSSLSASVGDRVTITCRASQRISSYLNWYQQKPGKAPKLLIYDASNLQSGVPSRFSGSGSGTDFTLTINGLQPDDFAIYFCHQSYSAPPTFGQGTKVEIK
- binding of phage clones to c-Met-Fc control protein (Met-Fc): not
- binding of phage clones to VEGFR2-Fc (VEGFR2-Fc): bind highly

B6: R2S12: soluble anti-VEGFR2 scFv protein from phage clone R2PC12; VH SEQ ID NO: 76, VL SEQ ID NO: 77 (antibody, V domains shown)
VH: QVNLRESGGGLVKPGGSLRLSCAASGFTFGSYTMNWVRQAPGKGLEWVASITSGSSYIFYTDSVKGRFTISRDNSRSSLFLQMNSLRAEDTAIYYCARGSASAFDIWGQGTMVTVSS
VL: DIQMTQSPSSLSASVGDRVTITCKASDDIINYLNWYQQKPGEAPKLLIYDASILETGVPSRFSGSGSGTDFTFTISSLQPEDIATYYCQQYDILPLTFGGGTKLEIK
modifications: scFv linker; VH region of R2S12 or R2S12-AF; VL region of R2S12
- tyrosine phosphorylation of VEGFR2 by VEGF-A (VEGFR2 signaling pathway): strongest inhibition activity
- cross-reaction / binding to murine VEGFR2 (murine VEGFR2 protein): did not cross-react
- IC50 (VEGFR2): 3.26 nM

B7: R2PC8: phage-displayed human scFv clone binding VEGFR2; VH CDR1-3 SEQ ID NO: 1-3, VL CDR1/CDR3 SEQ ID NO: 4, 5 (antibody, V domains shown)
VH: QVQLVQSGGGLVKPGGSLRLSCAASGFTFSSYSMSWVRQAPGKGLEWVSSISSSSSYIYYADSVKGRFTISRDNAKNSLYLQMNSLRAEDTAVYYCARSTDAFDIWGQGTMVTVSS
VL: DIVMTQSPSSLSASVGDRVTITCRASQRISNYLNWYQHKSGEDPKLLIYAASSLQSGVPSRFSGSGSGTDFTLTISSLQPEDFATYYCQQYDRYPPTFGQGTKLEIK
- binding of phage clones to c-Met-Fc control protein (Met-Fc): not
- binding of phage clones to VEGFR2-Fc (VEGFR2-Fc): bind highly

B8: R2S8: soluble anti-VEGFR2 scFv protein generated from phage clone R2PC8 (antibody, V domains shown)
VH: B7 VH
VL: B7 VL
- tyrosine phosphorylation of VEGFR2 by VEGF-A (VEGFR2 signaling pathway): inhibited
- cross-reaction / binding to murine VEGFR2 (murine VEGFR2 protein): did not cross-react
- IC50 (VEGFR2): 7.03 nM
